This note sets out measurements from article PMC10397247.

What all share (assay): two-hybrid library CCNG1;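 note: natural log of median RNA to DNA barcode read ratio; higher means stronger binding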
The target of one test is T1, 4H3175-bN.
T1 chain: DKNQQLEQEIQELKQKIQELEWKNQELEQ

The target of another test is T2, 4H3497-bN.
T2 chain: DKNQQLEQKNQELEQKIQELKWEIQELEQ

The target in another test is T3, 4H3277-bN.
T3 chain: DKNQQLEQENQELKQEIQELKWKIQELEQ

The target in a further test is T4, 4H3298-bN.
T4 chain: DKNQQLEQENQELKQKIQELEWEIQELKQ

A further test has as its target T5, 4H3462-bN.
T5 chain: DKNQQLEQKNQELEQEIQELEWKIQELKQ

A further test addresses T6, 4H3613-bN.
T6 chain: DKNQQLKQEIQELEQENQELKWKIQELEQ

For another test, the target named is T7, 4H591-bN.
T7 chain: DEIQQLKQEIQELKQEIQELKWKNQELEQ

For the next test, the target named is T8, 4H626-bN.
T8 chain: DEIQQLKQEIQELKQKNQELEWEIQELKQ

In the next test the target is T9, O8-bN.
T9 chain: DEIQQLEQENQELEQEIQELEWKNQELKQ

A further test has as its target T10, 4H3162-bN.
T10 chain: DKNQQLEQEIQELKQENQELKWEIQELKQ

A further test addresses T11, 4H3628-bN.
T11 chain: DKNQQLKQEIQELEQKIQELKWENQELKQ

In the next test the target is T12, 4H3926-bN.
T12 chain: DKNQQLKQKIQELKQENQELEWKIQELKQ

The target of the next test is T13, 4H906-bN.
T13 chain: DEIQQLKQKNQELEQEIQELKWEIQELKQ

The target in a further test is T14, 4H1899-bN.
T14 chain: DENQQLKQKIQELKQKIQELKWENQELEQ

For a further test, the target named is T15, 4H3858-bN.
T15 chain: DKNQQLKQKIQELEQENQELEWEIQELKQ

Another test deals with T16, 4H953-bA.
T16 chain: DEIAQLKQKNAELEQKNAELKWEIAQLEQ

A further test has as its target T17, 4H570-bN.
T17 chain: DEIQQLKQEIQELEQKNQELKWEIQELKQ

The target in the next test is T18, 4H2697-bN.
T18 chain: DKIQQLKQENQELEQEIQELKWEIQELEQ

The target in another test is T19, 4H717-bH.
T19 chain: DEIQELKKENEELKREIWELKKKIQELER

Another test has as its target T20, 4H3817-bN.
T20 chain: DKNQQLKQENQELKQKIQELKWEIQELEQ

For the next test, the target named is T21, 4H850-bN.
T21 chain: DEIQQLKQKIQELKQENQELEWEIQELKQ

A further test addresses T22, 4H1985-bN.
T22 chain: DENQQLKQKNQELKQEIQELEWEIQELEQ

A further test addresses T23, 4H3974-bN.
T23 chain: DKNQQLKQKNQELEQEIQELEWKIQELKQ

In the case of DKNQQLEQEIQELKQENQELKWEIQELKQ [4H3162-bN], the interaction score was -0.427 with 4H3175-bN; -0.903 with 4H3497-bN; -0.514 with 4H3277-bN; -0.102 with 4H3298-bN; 0.241 in the test with 4H3462-bN; -1.7 with 4H3613-bN. The interaction score is -1.33 in the test with 4H591-bN; -1.41 with 4H626-bN; -3.16 with O8-bN; 0.979 in the test with 4H3162-bN; -0.668 in the test with 4H3628-bN; 0.163 in the test with 4H3926-bN. For the same molecule, the interaction score in the test with 4H906-bN was -0.289.

For DENQQLKQKIQELKQKIQELKWENQELEQ [4H1899-bN], the interaction score was -0.0673 with 4H3175-bN; -0.658 in the test with 4H3497-bN; -1.24 with 4H1899-bN; -0.633 with 4H3858-bN; -1.81 in the test with 4H953-bA; -1.21 in the test with 4H3277-bN. Also, the interaction score with 4H570-bN is -1; with 4H2697-bN it was -1.18; in the test with 4H717-bH, -0.282; in the test with 4H3817-bN it was -0.969; with 4H3298-bN, -0.744; in the test with 4H3462-bN it was -2.27. For the same molecule, the interaction score with 4H3613-bN is 0.0619; with 4H591-bN it was -1.42; with 4H626-bN, -0.642; in the test with 4H3162-bN it was -0.75; in the test with 4H850-bN, -1.55; in the test with 4H1985-bN it was -0.785. In addition, the interaction score with 4H3628-bN is 0.469; with 4H3974-bN, -0.336; with 4H3926-bN, -0.429; with 4H906-bN, -0.654.
